One molecule from patent CN113045647A (NANJING LEGEND BIOTECH CO LTD, dated 2021) can be followed below.

This assay concerns the target SARS-CoV-2-RBD(6×His融合蛋白，来自金斯瑞生物公司) (SARS-CoV-2, UniProt P0DTC2 319-541). As to the kind of experiment: ELISA, E. coli expression supernatant on coated SARS-CoV-2-RBD His. In general terms: In an ELISA, binding on a coated surface is turned into a signal by an enzyme label.

B1: 人源Fab抗体AS182561 (Fab, E. coli expression supernatant) (Fab, V domains shown, not shown: large carriers)
VH: EVQLVESGGGLVQPGGSLRLSCAASGFNIYSSYMHWVRQAPGKGLEWVASISPSYSYTSYADSVKGRFTISADTSKNTAYLQMNSLRAEDTAVYYCARYSYYGMDYWGQGTLVTVSA
VL: DIQMTQSPSSLSASVGDRVTITCRASQSVSSAVAWYQQKPGKAPKLLIYSASSLYSGVPSRFSGSRSGTDFTLTISSLQPEDFATYYCQQPPWHGLITFGQGTKVEIK
In the case of B1, the binding result is recorded as “binds”.
